Experimental data reported in article PMC8567388 (iScience, 2021).
Ends that are not written are not given here.

Tests used:
PSD-95 61-724 6xHis [1] = molecular target: T1, PSD-95 61-724 6xHis (human, UniProt P78352 61-724); test: co-sedimentation
[2] = molecular target: T2, PSD-95 61-724 6xHis pSer142 (human, UniProt P78352 61-724, phosphoserine at 142); test: co-sedimentation
[3] = molecular target: T3, PSD-95 61-724 6xHis pSer73 (human, UniProt P78352 61-724, phosphoserine at 73); test: co-sedimentation
PSD-95 61-724 6xHis [4] = molecular target: T1, PSD-95 61-724 6xHis; test: fluorescence polarisation
[5] = molecular target: T2, PSD-95 61-724 6xHis pSer142; test: fluorescence polarisation
[6] = molecular target: T3, PSD-95 61-724 6xHis pSer73; test: fluorescence polarisation

B1: GluN2B cytoplasmic tail (aa 1170-1482) (domain or fragment)
chain: GGPCTNRSHLKHGTGEKHGVVGGVPAPWEKNLTNVDWEDRSGGNFCRSCPSKLHNYSSTVAGQNSGRQACIRCEACKKAGNLYDISEDNSLQELDQPAAPVAVTSNASSTKYPQSPTNSKAQKKNRNKLRRQHSYDTFVDLQKEEAALAPRSVSLKDKGRFMDGSPYAHMFEMPAGESSFANKSSVPTAGHHHNNPGSGYMLSKSLYPDRVTQNPFIPTFGDDQCLLHGSKSYFFRQPTVAGASKTRPDFRALVTNKPVVVTLHGAVPGRFQKDICIGNQSNPCVPNNKNPRAFNGSSNGHVYEKLSSIESDV
B1: binds (PSD-95 61-724 6xHis [1]); binds [2]; binds [3].

{TAMRA}-NNGSNAKAVETDV [Peptide ligand: Kv1.4 (TAMRA-NNG-SNAKAVETDV)]: binds (PSD-95 61-724 6xHis [4]); binds [5].

Work on {TAMRA}-NNGYEKLSSIESDV [Peptide ligand: GluN2B (TAMRA-NNG-YEKLSSIESDV)] yielded a Kd (PSD-95 61-724 6xHis [4]) of 1200 nM.

With {TAMRA}-NNGNTANRRTTPV [Peptide ligand: Stargazin (TAMRA-NNG-NTANRRTTPV)] the Kd (PSD-95 61-724 6xHis [4]) was 2700 nM.

{TAMRA}-NNGKKMPSIESDV [Peptide ligand: GluN2A (TAMRA-NNG-KKMPSIESDV)]: binds (PSD-95 61-724 6xHis [4]); binds [6].

{TAMRA}-NNGPAGKHMVTEV [Peptide ligand: Kv1.7 (TAMRA-NNG-PAGKHMVTEV)]: binds (PSD-95 61-724 6xHis [4]); binds [5].
